The labels stand for the following.
B1: Hairpin Ribozyme (parent)
chain: GUCCUCUUUCACGUGCGCGUGAAAGAGAGAAGUGAACCAGAGAAACACACGUUGUGGUAUAUUACCUGGUA

This series covers variants of B1. The experiment in a line: self-cleavage, relative activity (ratio to wild type); higher = more cleavage; co-transcriptional.
As to C4G U58G, the self-cleavage is 0.241.

C4U C18A: the self-cleavage was 0.4.

Take C4U G42A: the self-cleavage was 0.27.

With C4U C66A, the self-cleavage came to 0.182.

In the case of C4U C66G, the self-cleavage turned out to be 0.217.

Take U5C U7G: the self-cleavage was 0.365.

On to U5C U7A, for which the self-cleavage was 0.395.

C4U G21C: the self-cleavage turned out to be 0.328.

For C4U G21U, the self-cleavage came out at 0.222.

Regarding U5A A24G, the self-cleavage worked out at 0.381.

As for U5A A24C, the self-cleavage is 0.314.

For the variant C4G G56A, the self-cleavage came out at 0.249.

For the variant C4G G56U, the self-cleavage is 0.148.

As to U5C A26U, the self-cleavage turned out to be 0.505.

As for C4G A71C, the self-cleavage was found to be 0.483.

Consider C4A U60A, for which the self-cleavage is 0.197.

On to U5C G69A, for which the self-cleavage was found to be 0.158.

For C4U A44G, the self-cleavage is 0.269.

Turning to C4U G57C, the self-cleavage came out at 0.226.

Turning to C4U G57A, the self-cleavage worked out at 0.155.

In the case of C4U G57U, the self-cleavage was 0.161.

Regarding U5A U60A, the self-cleavage turned out to be 0.477.

With U5A U60C, the self-cleavage was found to be 0.709.

With C4G G57C, the self-cleavage worked out at 0.143.

On to C4U A41G, for which the self-cleavage is 0.299.

Take C4A A47U: the self-cleavage amounted to 0.0985.

In the case of C4U U33G, the self-cleavage is 0.0889.

As for C4U U33A, the self-cleavage stood at 0.283.

On to U5A C37G, for which the self-cleavage turned out to be 0.18.

Turning to U5A A64U, the self-cleavage turned out to be 0.133.

For the variant U5A A64C, the self-cleavage came to 0.151.

C4G C65U: the self-cleavage turned out to be 0.224.

In the case of C4G C65G, the self-cleavage was determined as 0.178.

C4G C65A: the self-cleavage was found to be 0.206.

U5C G15C: the self-cleavage came out at 0.469.

On to U5C G15U, for which the self-cleavage turned out to be 0.574.

C4A G17C: the self-cleavage is 0.225.

Turning to C4U C65U, the self-cleavage was determined as 0.175.

Take U5C C37A: the self-cleavage was 0.178.

Take U5C A36G: the self-cleavage stood at 0.502.

As for U5C A36C, the self-cleavage came out at 0.576.

For the variant C4A G42A, the self-cleavage was 0.111.

Turning to U5C C18A, the self-cleavage turned out to be 0.699.

For U5C C18G, the self-cleavage turned out to be 0.251.

For C4G C38A, the self-cleavage worked out at 0.0909.

Take C4G C6A: the self-cleavage worked out at 0.195.

Turning to C4U A43G, the self-cleavage is 0.141.

Turning to U5C A23C, the self-cleavage is 0.692.

In the case of U5C A23G, the self-cleavage came out at 0.683.

For the variant U5A G17A, the self-cleavage was 0.435.

With U5A G17C, the self-cleavage stood at 0.204.

Turning to C4A A36C, the self-cleavage was 0.138.

In the case of U5A C10U, the self-cleavage worked out at 0.333.

On to U5C C12U, for which the self-cleavage turned out to be 0.772.

On to C4U C50A, for which the self-cleavage amounted to 0.203.

In the case of C4U C50U, the self-cleavage amounted to 0.213.

For the variant C4U C12U, the self-cleavage was 0.357.

Take C4A A49G: the self-cleavage is 0.157.

C4A A49C: the self-cleavage is 0.213.

In the case of C4G C50G, the self-cleavage worked out at 0.0987.

Turning to C4G U55G, the self-cleavage is 0.113.

In the case of C4G U52C, the self-cleavage worked out at 0.174.

As to U5A A36G, the self-cleavage was 0.427.

Consider U5A U63A, for which the self-cleavage came out at 0.206.

Turning to U5A U63C, the self-cleavage is 0.196.

As for C4U U7A, the self-cleavage is 0.296.

On to C4U G54C, for which the self-cleavage was 0.364.

On to C4U G54A, for which the self-cleavage amounted to 0.166.

For the variant C4G G32A, the self-cleavage came to 0.154.

Regarding U5A G32A, the self-cleavage was found to be 0.158.

Regarding C4G A59G, the self-cleavage amounted to 0.169.

Regarding C4G A59U, the self-cleavage was 0.212.

Turning to C4G A59C, the self-cleavage was 0.15.

For the variant U5A G68U, the self-cleavage stood at 0.154.

For the variant C4A A28G, the self-cleavage came to 0.247.

For the variant C4A A28C, the self-cleavage came to 0.0846.

As for U5A G13C, the self-cleavage is 0.19.

For U5A G13U, the self-cleavage turned out to be 0.302.

Consider U5A C16U, for which the self-cleavage came out at 0.475.

As for U5A C16A, the self-cleavage was 0.281.

As to U5A C16G, the self-cleavage turned out to be 0.231.

With C4A C46A, the self-cleavage was determined as 0.146.

With C4G A44C, the self-cleavage worked out at 0.136.

As to C4G G54U, the self-cleavage was 0.228.

For U5A G51A, the self-cleavage was 0.393.

With U5A C12A, the self-cleavage was 0.273.

On to U5A C12G, for which the self-cleavage is 0.266.

For U5A C66G, the self-cleavage was determined as 0.176.

Take U5A C66U: the self-cleavage is 0.153.

On to C4A C65U, for which the self-cleavage was 0.137.

As for U5C A11C, the self-cleavage stood at 0.764.

For the variant U5A G57U, the self-cleavage amounted to 0.102.

Turning to U5A A59U, the self-cleavage was found to be 0.153.

With C4U U52C, the self-cleavage worked out at 0.481.

Consider C4U U52G, for which the self-cleavage was 0.209.

For C4U C10A, the self-cleavage came to 0.177.

As for C4U G27C, the self-cleavage came out at 0.229.

On to C4U G27U, for which the self-cleavage came to 0.118.

As for C4G A30G, the self-cleavage came out at 0.069.

On to C4A A64G, for which the self-cleavage worked out at 0.134.

U5A U33C: the self-cleavage is 0.0952.

On to U5C A47C, for which the self-cleavage was found to be 0.208.

As for U5C A47U, the self-cleavage is 0.166.

Consider C4A C10A, for which the self-cleavage came out at 0.16.

Turning to C4A C10U, the self-cleavage is 0.261.

In the case of U5C A39G, the self-cleavage was determined as 0.192.

With U5C G29A, the self-cleavage worked out at 0.106.

Regarding C4G U60A, the self-cleavage was found to be 0.105.

With C4G U60G, the self-cleavage came to 0.147.

In the case of C4A C6U, the self-cleavage was found to be 0.143.

Regarding C4A C6G, the self-cleavage worked out at 0.161.

Take C4A A43C: the self-cleavage was determined as 0.0588.

On to U5A G27A, for which the self-cleavage came to 0.179.

In the case of U5A G27C, the self-cleavage came to 0.187.

For U5A G27U, the self-cleavage amounted to 0.116.

Take C4U C46A: the self-cleavage was 0.164.

Turning to C4U C46G, the self-cleavage was determined as 0.121.

Take U5A C48G: the self-cleavage amounted to 0.0819.

As to C4U G40C, the self-cleavage stood at 0.13.

For the variant C4U C6A, the self-cleavage came to 0.0821.

As for C4U C6G, the self-cleavage is 0.0904.

With C4U C6U, the self-cleavage stood at 0.192.

For the variant U5A A41U, the self-cleavage came out at 0.818.

For the variant C4U A11U, the self-cleavage is 0.256.

On to C4U A11G, for which the self-cleavage was 0.425.

For U5C A41U, the self-cleavage was 1.06.

Consider U5C A41G, for which the self-cleavage came out at 0.569.

Turning to U5A A61C, the self-cleavage turned out to be 0.088.

With U5A G15U, the self-cleavage came to 0.495.

Consider U5A G15A, for which the self-cleavage stood at 0.388.

Consider C4U U8G, for which the self-cleavage is 0.204.

In the case of C4G A61G, the self-cleavage is 0.098.

As for C4G A61U, the self-cleavage was found to be 0.0796.

As to C4G A61C, the self-cleavage stood at 0.164.

Consider C4A G32U, for which the self-cleavage stood at 0.168.

For C4A G32C, the self-cleavage came to 0.155.

For C4A G32A, the self-cleavage worked out at 0.195.

In the case of C4U G17A, the self-cleavage amounted to 0.263.

As for U5C G27C, the self-cleavage turned out to be 0.15.

On to U5C G27U, for which the self-cleavage was 0.0794.

With C4A G13C, the self-cleavage was 0.223.

C4U U9G: the self-cleavage was determined as 0.178.

For the variant C4A U14C, the self-cleavage came out at 0.115.

C4A U14G: the self-cleavage was determined as 0.0473.

C4U A39U: the self-cleavage came to 0.188.

Consider U5C C10G, for which the self-cleavage stood at 0.373.

For C4G G27C, the self-cleavage came out at 0.653.

With C4G G19C, the self-cleavage is 0.194.

Regarding C4A G51C, the self-cleavage stood at 0.261.

For the variant U5A U62G, the self-cleavage was 0.11.

Consider C4U A64U, for which the self-cleavage was 0.205.

Regarding C4G U7C, the self-cleavage was found to be 0.15.

Regarding C4G U7A, the self-cleavage was 0.143.

For U5C C46U, the self-cleavage amounted to 0.023.

Consider C4U G56A, for which the self-cleavage turned out to be 0.161.

C4A G19A: the self-cleavage stood at 0.174.

U5A A39G: the self-cleavage came to 0.101.

As to U5A A39U, the self-cleavage is 0.0927.

For C4G G29C, the self-cleavage turned out to be 0.0848.

As to U5A U14C, the self-cleavage came out at 0.343.

As for U5C U20A, the self-cleavage stood at 0.532.

On to C4G G34U, for which the self-cleavage was found to be 0.977.

With C4G G34A, the self-cleavage came out at 0.5.

In the case of U5A A31U, the self-cleavage turned out to be 0.14.

Consider U5C G42C, for which the self-cleavage was determined as 0.327.

On to U5C G42U, for which the self-cleavage was found to be 0.164.

As to U5A C50U, the self-cleavage was 0.291.
